Patent US20160053014A1

Molecular target: human CXCR5 (human) (UniProt P32302)
Assay: cell-based or functional assay

human CXCR5 (human), sequence (P32302 whole entry): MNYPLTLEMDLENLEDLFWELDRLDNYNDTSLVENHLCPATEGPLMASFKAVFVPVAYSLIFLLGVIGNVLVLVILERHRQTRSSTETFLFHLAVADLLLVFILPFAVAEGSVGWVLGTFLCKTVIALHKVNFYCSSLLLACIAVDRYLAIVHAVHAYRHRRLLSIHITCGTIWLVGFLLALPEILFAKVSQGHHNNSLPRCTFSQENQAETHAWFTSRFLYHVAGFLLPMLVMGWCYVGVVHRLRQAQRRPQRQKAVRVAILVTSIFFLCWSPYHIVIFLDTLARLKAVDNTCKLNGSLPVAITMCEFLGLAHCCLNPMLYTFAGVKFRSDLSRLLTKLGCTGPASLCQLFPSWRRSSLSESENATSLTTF

B1: SAR113244 (antibody, from another filing, V domains shown)
VH: QVQLKESGPGLVAPSESLSITCTVSGFSLIDYGVNWIRQPPGKGLEWLGVIWGDGTTYYNPSLKSRLSISKDNSKSQVFLKVTSLTTDDTAMYYCARIVYWGQGTLVTVSA
VL: DIVMTQAAPSVAVTPGASVSISCRSSKSLLHSSGKTYLYWFLQRPGQSPQLLIYRLSSLASGVPDRFSGSGSGTAFTLRISRVEAEDVGVYYCMQHLEYPYTFGGGTKLEIKR
- IC50 [nM] of mAbs in chemotaxis assay using HS-Sultan cells (25 nM CXCL13): 4.7 nM
